Consider seven proteins from US20250027068.

The chains are these.
B1: PRT-180 (protein)
chain: MANQEIRYSEVTPYHVTSVWTKGVTPPANFTQGEDVFHAPYVANQGWYDITKTFNGKDDLLCGAATAGNMLHWWFDQNKDQIKRYLEEHPEKQKINFNGEQMFDVKEAIDTKNHQLDSKLFEYFKEKAFPYLSTKHLGVFPDHVIDMFINGYRLSLTNTQSTDVNEGSKDPRGGIFDAVFTRGDQSKLLTSRHDFKEKNLKEISDLIKKELTEGKALGLSHTYANVRINHVINLWGADFDSNGNLKAIYVTDSDSNASIGMKKYFVGVNSAGKVAISAKEIKEDNIGAQVLGLFTLSTGQDSWNQTN
B2: PRT-184 (protein)
chain: B1 chain with T159H, Q160G, S161P, D163P, N165K, N304Q, Q305K, T306L, N307S
B3: PRT-183 (protein)
chain: MRNATEAYAKEVPHQVTSVWTKGVTPPANFTQGEDVFHAPYVANQGWYDITKTFNGKDDLLCGAATAGNMLHWWFDQNKDQIKRYLEEHPEKQKINFNGEQMFDVKEAIDTKNHQLDSKLFEYFKEKAFPYLSTKHLGVFPDHVIDMFINGYRLSLTNHGPTPVKEGSKDPRGGIFDAVFTRGDQSKLLTSRHDFKEKNLKEISDLIKKELTEGKALGLSHTYANVRINHVINLWGADFDSNGNLKAIYVTDSDSNASIGMKKYFVGVNSAGKVAISAKEIKEDNIGAQVLGLFTLSTGQDSWNQTN
B4: PRT-178 (protein)
chain: MANQEIRYSEVTPYHVTSVWTKGVTPPANFTQGEDVFHAPYVANQGWYDITKTFNGKDDLLCGAATAGNMLHWWFDQNKDQIKRYLEEHPEKQKIIFNNQELFDLKAAIDTKNHQLDSKLFEYFKEKAFPYLSTKHLGVFPDHVIDMFINGYRLSLTNHGPTPVKEGSKDPRGGIFDAVFTRGDQSKLLTSRHDFKEKNLKEISDLIKKELTEGKALGLSHTYANVRINHVINLWGADFDSNGNLKAIYVTDSDSNASIGMKKYFVGVNSAGKVAISAKEIKEDNIGAQVLGLFTLSTGQDSWNQTN
B5: PRT-182 (protein)
chain: B1 chain with T159H, Q160G, S161P, D163P, N165K, E280K
B6: PRT-179 (protein)
chain: B1 chain with T134A, K135R, H136Q, T159H, Q160G, S161P, D163P, N165K
B7: PRT-181 (protein)
chain: B1 chain with T159H, Q160G, S161P, D163P, N165K, F195L, E197N

Where a chain is given by its changes, count along the chain named.

For this data set, the target named is pooled human IgG (human IgG1,2,3 and 4).
B1: the Enzyme Activity Endpoint Assay: Fab'2 worked out at 690 ng/µL, the Enzyme Activity Endpoint Assay: Fc came to 197 ng/µL, the Enzyme Activity Endpoint Assay: IgG was 0 ng/µL and the Enzyme Activity Endpoint Assay: scIgG was determined as 0 ng/µL.

B2 showed an Enzyme Activity Endpoint Assay: Fab'2 of 629 ng/µL, an Enzyme Activity Endpoint Assay: Fc of 165 ng/µL, an Enzyme Activity Endpoint Assay: IgG of 0 ng/µL and an Enzyme Activity Endpoint Assay: scIgG of 0 ng/µL.

Consider B3, for which the Enzyme Activity Endpoint Assay: Fab'2 is 630 ng/µL, the Enzyme Activity Endpoint Assay: Fc was found to be 175 ng/µL, the Enzyme Activity Endpoint Assay: IgG is 0 ng/µL and the Enzyme Activity Endpoint Assay: scIgG was 0 ng/µL.

B4 registered an Enzyme Activity Endpoint Assay: Fab'2 of 695 ng/µL, an Enzyme Activity Endpoint Assay: Fc of 196 ng/µL, an Enzyme Activity Endpoint Assay: IgG of 0 ng/µL and an Enzyme Activity Endpoint Assay: scIgG of 0 ng/µL.

B5 came in with an Enzyme Activity Endpoint Assay: Fab'2 of 563 ng/µL, an Enzyme Activity Endpoint Assay: Fc of 167 ng/µL, an Enzyme Activity Endpoint Assay: IgG of 0 ng/µL and an Enzyme Activity Endpoint Assay: scIgG of 27 ng/µL.

Turning to B6, the Enzyme Activity Endpoint Assay: Fab'2 is 697 ng/µL, the Enzyme Activity Endpoint Assay: Fc was 187 ng/µL, the Enzyme Activity Endpoint Assay: IgG stood at 0 ng/µL and the Enzyme Activity Endpoint Assay: scIgG was found to be 0 ng/µL.

In turn, B7 gave an Enzyme Activity Endpoint Assay: Fab'2 of 890 ng/µL, an Enzyme Activity Endpoint Assay: Fc of 217 ng/µL, an Enzyme Activity Endpoint Assay: IgG of 24 ng/µL and an Enzyme Activity Endpoint Assay: scIgG of 0 ng/µL.
